Source: PMC11084278 (International Journal of Molecular Sciences, 2024)
Marks after values point to notes of the source that are not given here. Blank lines part the entries; values can stand above or below the molecule they belong to.

What was measured:
[1] = target: T1, NLuc-CXCR3 (Homo sapiens, UniProt P49682); test: Multiplex NanoBRET binding, mixed NLuc-CXCR3 and NLuc-CXCR4 membranes, read at 520 nm (CXCL10-AZD488); conditions: mixed (1:1) NLuc-CXCR3 and NLuc-CXCR4 membranes; both CXCL10-AZD488 and CXCL12-AZD647, 10 nM each
T1 construct: 5HT3a signal peptide (N); expressed in transfected cells; host or cells: HEK293T, transient; membrane preparation
T1 sequence (P49682 2-368 limits assumed): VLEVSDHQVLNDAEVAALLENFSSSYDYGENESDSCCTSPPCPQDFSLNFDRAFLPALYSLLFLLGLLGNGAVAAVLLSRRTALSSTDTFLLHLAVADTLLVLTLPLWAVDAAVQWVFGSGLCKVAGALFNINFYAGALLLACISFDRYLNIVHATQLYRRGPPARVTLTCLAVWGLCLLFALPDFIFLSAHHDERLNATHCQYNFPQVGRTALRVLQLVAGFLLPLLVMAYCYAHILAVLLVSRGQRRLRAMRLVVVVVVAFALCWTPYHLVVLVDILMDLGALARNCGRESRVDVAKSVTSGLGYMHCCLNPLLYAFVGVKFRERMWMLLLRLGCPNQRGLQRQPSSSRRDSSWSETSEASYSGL
Method: (§1) HEK293T cells (2 × 10^6) were seeded in 10 cm^2 culture dishes. After 24 h, the cells were transfected with 0.25 µg of plasmid DNA encoding human NLuc-ACKR3, NLuc-CXCR4 or NLuc-CXCR3, and 4.75 µg of pcDEF3 plasmid DNA using 30 µg of linear PEI. After two days, the cells were collected in PBS and centrifuged at 2700 rpm at 4 °C. Next, the cell pellet was resuspended in ice-cold membrane buffer (15 mM of Tris, 0.3 mM of EDTA, 2 mM of MgCl2, pH 7.4 at 4 °C) and homogenized by plunging the pestle using 10 strokes at 1100 rpm. The cell homogenates were exposed to two freeze and thaw cycles using liquid nitrogen and were centrifuged at 25,000 rpm. The pellet was resuspended in Tris-sucrose buffer (20 mM of Tris, 250 mM of Sucrose, pH 7.4 at 4 °C). Finally, cell membranes were homogenized using a 23-gauge needle, followed by snap-freezing with liquid nitrogen and then stored at −80 °C.
(§2) NanoBRET was measured after 1 h of incubation at room temperature, as described above.
For saturation binding experiments, the KD was obtained using one-site total and non-specific binding. For binding experiments, pIC50 values were obtained using a one-site pIC50 model. The equilibrium dissociation constants (Ki) of unlabeled ligands were subsequently calculated using the Cheng−Prusoff equation. […]

[2] = target: T2, NLuc-CXCR4 (Homo sapiens, UniProt P61073); test: Multiplex NanoBRET binding, mixed NLuc-CXCR3 and NLuc-CXCR4 membranes, read at 640 nm (CXCL12-AZD647); parameters: 5HT3a signal peptide (N); host or cells: HEK293T, transient; membrane preparation; conditions: mixed (1:1) NLuc-CXCR3 and NLuc-CXCR4 membranes; both CXCL10-AZD488 and CXCL12-AZD647, 10 nM each
Method: as §1, with “After 24 h, the cells were transfected with 0.25 µg of plasmid DNA encoding human NLuc-ACKR3, NLuc-CXCR4 or NLuc-CXCR3, and 4.75 µg of pcDEF3 plasmid DNA using 30 µg of linear PEI.” left out
(§3) For saturation binding experiments, the KD was obtained using one-site total and non-specific binding. For binding experiments, pIC50 values were obtained using a one-site pIC50 model. The equilibrium dissociation constants (Ki) of unlabeled ligands were subsequently calculated using the Cheng−Prusoff equation. (1) […] where [L] is the concentration of the labeled ligand and KD is the equilibrium dissociation constant of the labeled ligand.

[3] = target: T1, NLuc-CXCR3; test: NanoBRET competition binding versus CXCL10-AZD488 on NLuc-CXCR3 membranes only (520 nm)
Method: as §1, §2, §3

[4] = target: T2, NLuc-CXCR4; test: NanoBRET saturation binding to HEK293T membranes expressing NLuc-CXCR4; parameters: 5HT3a signal peptide (N); host or cells: HEK293T, transient; membrane preparation; conditions: non-specific binding with 10 µM IT1t, mean ± SD
Method: as §1, with “After 24 h, the cells were transfected with 0.25 µg of plasmid DNA encoding human NLuc-ACKR3, NLuc-CXCR4 or NLuc-CXCR3, and 4.75 µg of pcDEF3 plasmid DNA using 30 µg of linear PEI.” left out
as §3

[5] = target: NLuc-ACKR3 (Homo sapiens, UniProt P25106); test: NanoBRET competition binding versus AZDye-labeled CXCL12 on NLuc-ACKR3 membranes; parameters: 5HT3a signal peptide (N); host or cells: HEK293T, transient; membrane preparation
Method: as §1, with “After 24 h, the cells were transfected with 0.25 µg of plasmid DNA encoding human NLuc-ACKR3, NLuc-CXCR4 or NLuc-CXCR3, and 4.75 µg of pcDEF3 plasmid DNA using 30 µg of linear PEI.” left out
All experiments were analyzed using Graphpad Prism 9.0. For binding experiments, pIC50 values were obtained using a one-site pIC50 model using global fitting with shared non-specific binding values.
as §3

[6] = target: HA-tagged ACKR3 C-terminally fused to SmBit (UniProt P25106)
[7] = target: T2, NLuc-CXCR4
[8] = target: T2, NLuc-CXCR4; test: FRET or BRET; NanoBRET competition binding against CXCL12-AZD647 (0.3 nM on NLuc-ACKR3, 10 nM on NLuc-CXCR4 HEK293T membranes) with increasing unlabeled ligand; HBSS with 0.2% BSA; 1 h at room temperature; Ki by Cheng-Prusoff
[9] = target: T2, NLuc-CXCR4; test: FRET or BRET; NanoBRET competition binding against CXCL12-AZD488 (0.3 nM on NLuc-ACKR3, 10 nM on NLuc-CXCR4 HEK293T membranes) with increasing unlabeled ligand; HBSS with 0.2% BSA; 1 h at room temperature; Ki by Cheng-Prusoff
[10] = target: T2, NLuc-CXCR4; test: FRET or BRET; NanoBRET competition binding against CXCL12-AZD546 (0.3 nM on NLuc-ACKR3, 10 nM on NLuc-CXCR4 HEK293T membranes) with increasing unlabeled ligand; HBSS with 0.2% BSA; 1 h at room temperature; Ki by Cheng-Prusoff
[11] = target: T2, NLuc-CXCR4; test: FRET or BRET; NanoBRET competition binding against CXCL12-AZD594 (0.3 nM on NLuc-ACKR3, 10 nM on NLuc-CXCR4 HEK293T membranes) with increasing unlabeled ligand; HBSS with 0.2% BSA; 1 h at room temperature; Ki by Cheng-Prusoff
[12] = target: CXCR4 (Homo sapiens, UniProt P61073); test: CXCR4-mediated inhibition of isoprenaline-induced intracellular cAMP (FRET-based EPAC sensor) in HEK293 cells; type: cell-based; conditions: HEK293 cells stably expressing CXCR4 and EPAC sensor; 100 nM isoprenaline; mean ± SD
Method: Human embryonic kidney 293 cells stably co-expressing CXCR4 and the FRET-based EPAC sensor with mCerulean and mCitrine as a FRET pair were kindly provided by Dr. M. Zimmermann (Interax Biotech, Zurich, Switzerland), and were cultured in DMEM supplemented with 10% FBS and penicillin ([…]), streptomycin ([…]), zeocin (0.06 mg/mL) and G418 (0.6 mg/mL) at 37 °C with 5% CO2.
HEK293 cells stably expressing CXCR4 and a FRET-based EPAC sensor were seeded into a 96-well black plate (0.5 × 10^6/well). […] Fluorescence was measured using the following parameters: excitation at 430–15 nm, and emission at 530–20 and 480–20 nm using the CLARIOstar Plus (BMG Labtech, Ortenberg, Germany). The FRET ratio was calculated by dividing the signal of the acceptor at 530 nm by the donor signal at […].

[13] = target: T3, NLuc-ACKR3 (human, UniProt P25106 1-362); test: FRET or BRET; NanoBRET competition binding against CXCL12-AZD546 (0.3 nM on NLuc-ACKR3, 10 nM on NLuc-CXCR4 HEK293T membranes) with increasing unlabeled ligand; HBSS with 0.2% BSA; 1 h at room temperature; Ki by Cheng-Prusoff; conditions: one partner purified
T3 construct: ACKR3 (CXCR7), human; NLuc is preceded by the 5HT3a signal peptide and fused via a Gly-Ser linker (BamHI site) to ACKR3, in pcDNA3.1; also called CXCR7; source: HEK293T, transiently transfected, membrane preparation; not shown: NLuc, N-terminal, kept

[14] = target: T3, NLuc-ACKR3; test: FRET or BRET; NanoBRET competition binding against CXCL12-AZD647 (0.3 nM on NLuc-ACKR3, 10 nM on NLuc-CXCR4 HEK293T membranes) with increasing unlabeled ligand; HBSS with 0.2% BSA; 1 h at room temperature; Ki by Cheng-Prusoff; conditions: one partner purified
[15] = target: T3, NLuc-ACKR3; test: FRET or BRET; NanoBRET competition binding against CXCL12-AZD594 (0.3 nM on NLuc-ACKR3, 10 nM on NLuc-CXCR4 HEK293T membranes) with increasing unlabeled ligand; HBSS with 0.2% BSA; 1 h at room temperature; Ki by Cheng-Prusoff; conditions: one partner purified
[16] = target: T3, NLuc-ACKR3; test: FRET or BRET; NanoBRET competition binding against CXCL12-AZD488 (0.3 nM on NLuc-ACKR3, 10 nM on NLuc-CXCR4 HEK293T membranes) with increasing unlabeled ligand; HBSS with 0.2% BSA; 1 h at room temperature; Ki by Cheng-Prusoff; conditions: one partner purified
[17] = 0.3 nM probe, Cheng-Prusoff, mean ± SD

Molecule: CXCL12-AZD647: CXCL12 tagged at the C-terminus with fluorescent AZDye 647 by click chemistry
pKD for CXCR4 [4]: 7.9 ± 0.1

Molecule: CC1(C)CN2C(CSC(=NC3CCCCC3)NC3CCCCC3)=CSC2=N1 [IT1t]
pKi, Multiplex at 520 nm [1]: no clear competition binding curve was detected

Molecule: Human recombinant CXCL12 (unlabeled) (from UniProt P48061 22-93) (ligand)
pEC50 of β-arrestin2 recruitment to ACKR3 (NanoBiT complementation, HEK293T cells) [6]: 8
pEC50 of inhibition of isoprenaline-induced cAMP (FRET-based EPAC sensor) in HEK293 cells stably expressing CXCR4 (not the NLuc fusion) [7]: 9.7
pKi [8]: 8.4
pKi [9]: 8.4
pKi [10]: 9
pKi [11]: 8.2

Molecule: CXCL12-AZD594: CXCL12 tagged at the C-terminus with fluorescent AZDye 594 by click chemistry
cAMP by CXCR4 (pEC50) [12]: 8.9 ± 0.2
pKD for CXCR4 [4]: 7.6 ± 0.1

Molecule: CXCL12-AZD546: CXCL12 tagged at the C-terminus with fluorescent AZDye 546 by click chemistry
cAMP by CXCR4 (pEC50) [12]: 8.6 ± 0.3
pKD for CXCR4 [4]: 8.0 ± 0.0

B1: CXCL11 (unlabeled) (ligand, UniProt O14625 22-94, looked up)
chain: FPMFKRGRCLCIGPGVKAVKVADIEKASIMYPSNNCDKIEVIITLKENKGQRCLNPKSKQARLIIKKVERKNF
notes: CXCL11, unlabeled chemokine
pKi [13]: 9.4
pKi [14]: 9.2
pKi [15]: 9.5
pKi [16]: 9.4

The next lines start with results.

pKi, Multiplex at 520 nm [1]: 8.8 ± 0.1
pKi, CXCR3 Only at 520 nm ([3]; 10 nM CXCL10-AZD488, NLuc-CXCR3 membranes only): 8.8 ± 0.2
fold higher than the Ki from competition binding with [125I]-CXCL11 ([3]; comparison with ref 23): 10 fold
fold lower than the Ki from competition binding with [3H]-VUF11211 ([3]; comparison with ref 23): 1.5 fold
Molecule: CCNC(=O)c1cnc(N2CCN(C3CCN(Cc4ccc(Cl)cc4)CC3)[C@@H](CC)C2)c(Cl)c1 [VUF11211]
pKi, Multiplex at 640 nm [2]: no clear competition binding curve was detected

Binding affinity (pKi) for NLuc-ACKR3, probe CXCL12-AZD488 [5, 17]: 7.9 ± 0.1 ^b
Binding affinity (pKi) for NLuc-ACKR3, probe CXCL12-AZD546 [5, 17]: 7.9 ± 0.1
Binding affinity (pKi) for NLuc-ACKR3, probe CXCL12-AZD594 [5, 17]: 8.1 ± 0.2
Binding affinity (pKi) for NLuc-ACKR3, probe CXCL12-AZD647 [5, 17]: 8.2 ± 0.1
fold lower affinity for ACKR3 when tested in competition with CXCL12-AZD488 ([5]; compared with the other three probes): 5 fold
Molecule: COc1cc(C(=O)N(CCC2CCCN2C)CC(C)=Cc2ccccc2F)cc(OC)c1OC (centres unmarked) [VUF15485]
